Results published in EP2801619A1 (Fondazione Edmund Mach, dated 2014).

B1: CURVATURE THYLAKOID1C (CURT1C) of Arabidopsis thaliana, endogenous protein in thylakoid membranes (other)
chain: ASGESSDSSTDLDVVSTIQNVWDKSEDRLGLIGLGFAGIVALWASLNLITAIDKLPVISSGFELVGILFSTWFTYRYLLFKPDRQELSKIVKKSVADILGQ
notes: Thylakoid membrane protein as found in plant thylakoids; also called At1g52220
B2: CURT1A with a C-terminal cmyc tag, expressed in curt1a-2 or WT plants (other)
chain: ASSEETSSIDTNELITDLKEKWDGLENKSTVLIYGGGAIVAVWLSSIVVGAINSVPLLPKVMELVGLGYTGWFVYRYLLFKSSRKELAEDIESLKKKIAGSE
notes: Coding region under the 35S promoter; also called CURT1A-cmyc; cmyc-tagged CURT1A; not shown: C-terminal cmyc tag from vector pPCV812deltaNotI-Lola
B3: CURVATURE THYLAKOID1A (CURT1A) of Arabidopsis thaliana, endogenous protein in thylakoid membranes (other)
chain: B2 chain
notes: Thylakoid membrane protein as found in plant thylakoids; also called At4g01150

How the values were obtained:
[1] = target: B3; assay: 2D-BN/SDS-PAGE of thylakoid multiprotein complexes (Fig. 5b)
[2] = target: the molecule itself; assay: quantification of CURT1A crosslinking products from thylakoids of WT and CURT1A-cmyc overexpressors
[3] = target: the molecule itself; assay: chemical crosslinking (BS3) of thylakoid proteins, SDS-PAGE and immunoblot, WT against curt1 mutants

B1
binding result [1]: binds

B2
binding result [2]: binds

B3
binding result [3]: binds
